In article PMC3510490, “Structure of Actin-related protein 8 and its contribution to nucleosome binding” (Nucleic Acids Research, 2012) one finds Kd data, which are given here for seven substances.

Series [1] deals with Human Arp8 (Δ1-33) (Homo sapiens). Description: fluorescence titration. The following applies: 20 mM Tris pH 7.5, 150 mM KCl, 5% glycerol, 1 mM TCEP, 0.01% CHAPS, 0.01% octylglucoside, room temperature 20-30 min, labelled species 0.5-1 nM, protein ….
For series [2], the system named is Human Arp8 full-length (Homo sapiens). Description: fluorescence titration. The following applies: 20 mM Tris pH 7.5, 150 mM KCl, 5% glycerol, 1 mM TCEP, 0.01% CHAPS, 0.01% octylglucoside, room temperature 20-30 min, labelled species 0.5-1 nM, protein ….
Series [3] concerns Yeast Arp8 (Saccharomyces cerevisiae). Description: fluorescence titration. The following applies: 20 mM Tris pH 7.5, 150 mM KCl, 5% glycerol, 1 mM TCEP, 0.01% CHAPS, 0.01% octylglucoside, room temperature 20-30 min, labelled species 0.5-1 nM, protein ….
Series [4] deals with Yeast Arp8;Yeast Arp4;Actin (INO80 sub-complex I);Ino80 HSA domain (INO80 sub-complex I) (Saccharomyces cerevisiae;Saccharomyces cerevisiae;Saccharomyces cerevisiae;Saccharomyces cerevisiae). Description: fluorescence titration. The following applies: 20 mM Tris pH 7.5, 150 mM KCl, 5% glycerol, 1 mM TCEP, 0.01% CHAPS, 0.01% octylglucoside, room temperature 20-30 min, labelled species 0.5-1 nM, protein ….

In series [5] the target is 207-bp nucleosome (Xenopus laevis). Description: other fluorescence titration; Arp constructs or sub-complex titrated (1 to 5000 nM) into fluorescently labelled histone complexes or nucleosomes kept at 0.5-1 nM, 40 µl in microplates; 20 mM Tris pH 7.5, 150 mM KCl, 5% glycerol, 1 mM TCEP, 0.01% CHAPS, 0.01% octylglucoside; room temperature, 20-30 min; apparent Kd and Hill coefficient from non-linear fit; quadruplicates.

The target of series [6] is H2A–H2B dimer (Xenopus laevis) (UniProt P06897). Described as above.
The test system of series [7] is Yeast Arp4 (Saccharomyces cerevisiae). Description: fluorescence titration. The following applies: 20 mM Tris pH 7.5, 150 mM KCl, 5% glycerol, 1 mM TCEP, 0.01% CHAPS, 0.01% octylglucoside; room temperature 20-30 min; labelled species 0.5-1 nM, protein ….

Sequence of Full-length Homo sapiens Arp8 (Q9H981 whole entry): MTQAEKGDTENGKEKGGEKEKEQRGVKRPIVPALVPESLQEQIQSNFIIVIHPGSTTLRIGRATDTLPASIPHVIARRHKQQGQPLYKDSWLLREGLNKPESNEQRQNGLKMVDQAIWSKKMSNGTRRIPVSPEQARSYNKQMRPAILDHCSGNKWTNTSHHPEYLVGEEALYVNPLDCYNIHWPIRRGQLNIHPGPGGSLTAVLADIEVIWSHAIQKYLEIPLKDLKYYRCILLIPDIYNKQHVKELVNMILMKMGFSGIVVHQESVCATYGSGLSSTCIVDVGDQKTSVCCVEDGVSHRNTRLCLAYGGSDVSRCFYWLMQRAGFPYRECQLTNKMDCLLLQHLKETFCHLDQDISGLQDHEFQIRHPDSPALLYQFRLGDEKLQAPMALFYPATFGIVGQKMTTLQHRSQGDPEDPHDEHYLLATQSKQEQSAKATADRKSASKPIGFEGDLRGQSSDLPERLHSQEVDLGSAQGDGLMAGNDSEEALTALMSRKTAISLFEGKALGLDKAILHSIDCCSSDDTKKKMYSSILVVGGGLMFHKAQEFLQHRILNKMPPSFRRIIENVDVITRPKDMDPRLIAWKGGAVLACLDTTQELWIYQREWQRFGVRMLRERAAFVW
Sequence of Homo sapiens Arp8 (Δ1–33) (Q9H981 34-624, stated change not applied): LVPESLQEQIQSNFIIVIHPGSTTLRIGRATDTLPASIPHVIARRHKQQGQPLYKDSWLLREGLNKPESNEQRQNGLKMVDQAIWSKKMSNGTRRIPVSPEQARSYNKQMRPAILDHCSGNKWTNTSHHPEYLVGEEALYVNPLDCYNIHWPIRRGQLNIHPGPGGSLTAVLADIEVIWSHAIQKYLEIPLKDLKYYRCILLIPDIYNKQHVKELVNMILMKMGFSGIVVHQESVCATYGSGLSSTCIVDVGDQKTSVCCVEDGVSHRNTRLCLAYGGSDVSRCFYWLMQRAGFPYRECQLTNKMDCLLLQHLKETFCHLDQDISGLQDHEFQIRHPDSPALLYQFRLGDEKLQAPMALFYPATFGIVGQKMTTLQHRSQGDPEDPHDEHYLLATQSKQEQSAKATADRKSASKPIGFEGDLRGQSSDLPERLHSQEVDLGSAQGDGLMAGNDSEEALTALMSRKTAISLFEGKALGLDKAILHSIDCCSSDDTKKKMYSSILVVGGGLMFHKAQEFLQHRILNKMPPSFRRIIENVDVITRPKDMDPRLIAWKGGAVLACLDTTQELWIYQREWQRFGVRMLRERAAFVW

In the case of 30-bp DNA ('601' sequence linker DNA), the Kd in series [1] (5' C6 amine) was 6.33 µM; in series [2] (5' C6 amine), 6.94 µM; in series [3] (5' C6 amine), 1.92 µM; in series [4] (5' C6 amine), 0.366 µM.
On to “Saccharomyces cerevisiae INO80 sub-complex I (Arp8–Arp4–actin-HSA) (from UniProt Q12386 1-881; P80428 1-489; P60010 1-375; P53115 462-685)”, for which the Kd in series [5] was 0.0636 µM; in series [6] it was 0.853 µM.
The corresponding values for “Homo sapiens Arp8 (Δ1–33) (from UniProt Q9H981 34-624) (domain or fragment)” are 0.0626 µM and 0.367 µM.
As for “Saccharomyces cerevisiae Arp4 (from UniProt P80428 1-489) (natural protein)”, in series [5], the Kd worked out at 0.204 µM.
For the substance 207-bp nucleosome, the Kd in series [1] is 0.0626 µM; in series [2] it was 0.051 µM; in series [7], 0.204 µM; in series [3], 0.314 µM; in series [4] it was 0.0636 µM.
On to “Saccharomyces cerevisiae Arp8 (from UniProt Q12386 1-881) (natural protein)”, for which the Kd is 0.314 µM in series [5] and 1.95 µM in series [6].
For “Full-length Homo sapiens Arp8 (from UniProt Q9H981 1-624) (natural protein)”, the values for the Kd in series [5] and in series [6] were 0.051 µM and 0.555 µM, respectively.
